Experimental data as given in patent US20230266303A1, “SYSTEM” (GTINVENT LIMITED, priority 2020, published 2023).
“Also recorded” adds a separate entry of the source.

Assays:
Type in all cases: biochemical
[1] = molecular target: T1, dGAE (Homo sapiens, UniProt P10636); test: Tau aggregation inhibition assay in vitro, TEM
T1 construct: dGAE, corresponding to amino acid residues 297-391 using numbering from 2N4R tau; made in house
Procedure: (§1) dGAE protein was diluted into 10 mM phosphate buffer, pH 7.4 (PB) with monoclonal antibody s1 D12 at a ratio of 4:1 protein:Ab (100 μM dGAE+25 μM s1D12 and 10 μM dGAE+2.5 μM s1D12) or 1:1 (25 μM dGAE+25 μM s1D12).
(§2) As a positive control, dGAE was prepared at a final concentration of 10, 25 or 100 μM in 10 mM PB. Negative controls consisted of dGAE with a non-tau IgG antibody at a ratio of 4:1 (10 μM dGAE+2.5 μM anti-ovalbumin), or antibody alone (25 or 2.5 μM s1D12 and 2.5 μM anti-ovalbumin). Samples were agitated at 700 rpm at 37° C. for 3 days.
Transmission electron microscopy (TEM), circular dichroism (CD) and Thioflavin S (ThS) assays were performed as detailed in Al-Hilaly et. al. (2018) J. Mol. Biol. 430, 4119-4131. Briefly, TEM grids were prepared by adding 4 μL of sample to a carbon-coated grid followed by a wash with milli-Q filtered water then staining twice with 2% uranyl acetate. Grids were air dried and then imaged using a JEOL electron microscope operating at 80 kV.

[2] = molecular target: T1, dGAE; test: Tau aggregation inhibition assay in vitro, circular dichroism; conditions: 100 μM dGAE + 25 μM s1D12 (4:1)
Procedure: as §1, §2
(§3) For CD, 60 μL sample was placed in a 0.1 mm quartz cuvette and placed into a JASCO spectropolarimeter. 100 μL ThS in 20 mM MOPS buffer was added to 50 μL of each sample to a final concentration of 20 μM, mixed well, incubated at room temperature for 10 minutes then fluorescence intensity measured in a Cary Eclipse spectrophotometer using an excitation wavelength of 440 nm. Baseline readings from 10 mM PB were subtracted from CD and ThS measurements.

[3] = molecular target: T1, dGAE; test: Tau aggregation inhibition assay in vitro, Thioflavin S fluorescence; conditions: 25 μM (1:1) and 100 μM (4:1) dGAE with s1D12
Procedure: as §1, §2, §3

T1 sequence (P10636 614-708): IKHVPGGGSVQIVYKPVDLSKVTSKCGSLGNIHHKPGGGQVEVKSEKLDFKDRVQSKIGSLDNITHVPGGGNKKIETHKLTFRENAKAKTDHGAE

B1: s1D12: monoclonal antibody binding tau epitope within residues 337 to 349 or 341 to 353 of SEQ ID NO: 1 (antibody)
heavy: QVQLQESGPSLVKPSQTLSLTCTVSGFSLNNNAVGWVRQAPGKVPESLVGCSSDGTCYYNSALKSRLDITRDTSKNQISLSLSSVTTDDAAVYYCTRGHYSIYGYDYLGTIDYWGPGLLVTVSSAKTTAPSVYPLAPVCGDTTGSSVTLGCLVKGYFPEPVTLTWNSGSLSSGVHTFPAVLQSDLYTLSSSVTVTSSTWPSQSITCNVAHPASSTKVDKKIEPRGPTIKPCPPCKCPAPNLLGGPSVFIFPPKIKDVLMISLSPIVTCVVVDVSEDDPDVQISWFVNNVEVHTAQTQTHREDYNSTLRVVSALPIQHQDWMSGKEFKCKVNNKDLPAPIERTISKPKGSVRAPQVYVLPPPEEEMTKKQVTLTCMVTDFMPEDIYVEWTNNGKTELNYKNTEPVLDSDGSYFMYSKLRVEKKNWVERNSYSCSVVHEGLHNHHTTKSFSRTPGK
light: QAVLTQPSSVSGSLGQRVSITCSGSSSNVGGGNSVGWYQHLPGSGLKTIIYDTNSRPSGVPDRFSGSRSGNTATLTINSLQAEDEGDYYCVTGDSTTHDDLVGSGTRLTVLGGQPKSSPSVTLFPPSSEELETNKATLVCTITDFYPGVVTVDWKVDGTPVTQGMETTQPSKQSNNKYMASSYLTLTARAWERHSSYSCQVTHEGHTVEKSLSRADCS
With B1 the “overall effect on assembly of dGAE into fibrils” value ([1]; collective finding of TEM, CD and ThS experiments) was “inhibits the assembly of dGAE into fibrils in vitro; also recorded: specifically inhibits the assembly of dGAE into fibrils”, the “fibril formation of dGAE in presence of antibody (TEM)” value ([1]; dGAE:antibody 4:1 or 1:1 (anti-ovalbumin 4:1, 10 μM dGAE), 700 rpm, 37° C., 3 days) was “no fibril formation is observed; also recorded: no fibrils were present” and the “dGAE secondary structure in presence of antibody (CD, antibody spectrum subtracted)” value [2] was “dGAE cannot assemble into 3-sheet rich fibrils”. For the same molecule, the “dGAE secondary structure in presence of antibody (CD, antibody spectrum subtracted)” value ([2]; listed as s1 D12) was “dGAE has not assembled into fibrils”, the “ThS emission peak at 483 nm of dGAE in presence of antibody” value [3] was “this signal was abolished” and the “ThS emission peak at 483 nm of dGAE in presence of antibody” value ([3]; listed as s1 D12) was “abolished”.
